Results taken from IntAct's records for PubMed 21658387.
Blank lines part the entries; values can stand above or below the substance they belong to.

Tests used:
akt1_human AKT1 [1] = molecular target: akt1_human AKT1 (UniProt P31749)
mbp_bovin MBP [2] = molecular target: mbp_bovin MBP (UniProt P02687)
akt1_human AKT1 [3] = molecular target: akt1_human AKT1 (UniProt P31749); remark: listed apart in the source
mbp_bovin MBP [4] = molecular target: mbp_bovin MBP (UniProt P02687); remark: listed apart in the source
akt1_human AKT1 [5] = molecular target: akt1_human AKT1 (UniProt P31749); remark: listed apart in the source

Sequence of akt1_human AKT1 (P31749 whole entry): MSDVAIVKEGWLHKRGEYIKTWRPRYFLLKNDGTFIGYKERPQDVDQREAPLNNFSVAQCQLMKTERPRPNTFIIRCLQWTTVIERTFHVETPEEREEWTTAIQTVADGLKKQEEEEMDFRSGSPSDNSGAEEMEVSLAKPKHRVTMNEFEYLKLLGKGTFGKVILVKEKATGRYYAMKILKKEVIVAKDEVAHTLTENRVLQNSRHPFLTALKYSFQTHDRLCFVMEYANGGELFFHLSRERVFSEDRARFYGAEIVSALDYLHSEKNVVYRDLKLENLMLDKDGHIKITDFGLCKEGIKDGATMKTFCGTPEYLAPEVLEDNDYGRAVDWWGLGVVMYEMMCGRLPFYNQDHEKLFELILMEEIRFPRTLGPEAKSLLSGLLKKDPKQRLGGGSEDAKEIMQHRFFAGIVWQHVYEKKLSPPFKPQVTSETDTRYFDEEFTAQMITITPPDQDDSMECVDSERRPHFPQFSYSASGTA
Sequence of mbp_bovin MBP (P02687 whole entry): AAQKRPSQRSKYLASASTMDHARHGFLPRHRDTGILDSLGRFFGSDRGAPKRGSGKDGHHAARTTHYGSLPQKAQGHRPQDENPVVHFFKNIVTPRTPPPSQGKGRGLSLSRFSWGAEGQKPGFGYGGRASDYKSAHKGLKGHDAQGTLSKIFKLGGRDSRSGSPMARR

effect of a mutation on the interaction (akt1_human AKT1 [1]): decreasing interaction | effect of a mutation on the interaction (mbp_bovin MBP [2]): increasing interaction
Substance: Leucine-rich repeat serine/threonine-protein kinase 2 (Homo sapiens), Q5S007 G2019S

effect of a mutation on the interaction (akt1_human AKT1 [3]): decreasing interaction | effect of a mutation on the interaction (mbp_bovin MBP [4]): increasing interaction
Substance: Leucine-rich repeat serine/threonine-protein kinase 2 (Homo sapiens), Q5S007 I2020T

effect of a mutation on the interaction (akt1_human AKT1 [5]): decreasing interaction
Substance: Leucine-rich repeat serine/threonine-protein kinase 2 (Homo sapiens), Q5S007 R1441C
